Residue numbers refer to the chain shown, from its start. Names may count otherwise.
B1: CD47 TMEAbody (70H1.IgG1.Y61C + 20K PEG) (antibody, V domains shown)
VH: QQQLEESGGGLVKPEGSLTLTCTASGFSFSSGYDMCWVRQAPGRGLEWIACIYTRSSGGTCYASWAKGRFTISKTSSTVDLRMTSLTAADTATYFCAGGRSSYRLNLWGQGALVTVSS
VL: DVVMTQTPSPVEAAVGGTVTIKCQASQSISNELSWYQQKPGQPPKLLIYRASTLESGVSSRFKGSGSGTEFTLTISDLECADAATYYCQSTFYGDYGNAFGGGTEVVVK
modifications: Cys 61 (Y61C) conjugated with PEG of approximately 20K molecular weight (blocker, cleavable by legumain)
notes: IgG1; The same question of backbone applies as for 70H1.IgG1.Y61C; also called 70H1 TMEAbody; 70H1; IgG1 + 20K PEG
B2: 70H1.IgG1.Y61C (antibody, V domains shown)
VH: B1 VH
VL: B1 VL
notes: IgG1; also called 70H1 IgG1-mutation; 70H1 mutant VH-61 (Y-C)
B3: CD47 TMEAbody activated (antibody, IgG1, V domains shown)
VH: B1 VH
VL: B1 VL
modifications: Cys 61 (Y61C): 20K PEG blocker cleaved off by legumain (asparaginyl endopeptidase); what remains on the Cys is not stated
notes: The CD47 TMEAbody after treatment with legumain / asparaginyl endopeptidase; IgG1
B4: 69F12 (antibody, V domains shown)
VH: QSVEESEGGLFKPTDTLTLTCTISGFSLSNYDMIWVRQAPGNGLEYIGIISSRDKAGHAAWAKRRSTITRNPKENTVTLKMTSLTVADTATYFCARRFSSMHGLDIWGPGTLVTVSS
VL: AYDMTQTPSSVSAAVGGTVTIKCQASQSISNYLSWYQQKPGQPPKLLIYLASTLASGVPSRFKGSGSGTQFTLTISGVQCADAATYYCQQGYSSDSVDNVFGGGTEVVVK
notes: Recombinant rabbit monoclonal antibody expressed in Expi293; it was detected with anti-human IgG Fc
B5: 70H1 (antibody, V domains shown)
VH: B1 VH with C61Y
VL: B1 VL
notes: Rabbit-derived variable regions; also called 70H1.IgG1; 70H1 antibody
B6: 74F1 (antibody, V domains shown)
VH: QQQLEESGGDLVKPEGSLTLTCTASGFSFSSRYNMCWVRQAPGKGLEWIACIYTGSSGSTYYASWAKGRFTISKTSSTVDLKMTSLTAADTATYFCAGGSYSYRLNLWGQGTLVTVSS
VL: B1 VL with S9A, P10S, E12S, A13T, K63S, S90A, F92G, Y96F
notes: as for B4
B7: 71D6 (antibody, V domains shown)
VH: QSLEESGGDLVKPGASLTLTCTASGFSFSTSYWIYWVRQAPGKGLELIACIATGSDGSTYYASWASGRFTISKTSSTTVTLQMTSLTAADTATYFCAREAGNGVYNLWGQGTLVTVSS
VL: AYDMTQTPASVEVAVGGTVTIKCQASESIRNALAWYQQKPGQPPKLLISGASKLASGVASRFKGSGSATEFTLTISDLECADAATYYCQQYYSSSNVDNGFGGGTEVVVK
notes: as for B4
B8: 70G1 (antibody, V domains shown)
VH: QSVKESEGGLFKPTDTLTLTCTVSGFSLSNYAINWVRQAPGNGLEWIGIINGYGMTYYASWAKSRSTITRNTSENTVTLKLTSLTAADTATYFCARDRYGSYVGYSSDIWGPGTLVTVSS
VL: AYDMTQTPASVEAAVGGTVTIKCQASQNISSRLAWYQQKPGQPPKLLIYGTSTLASGVPSRFRGSGSGTQFSLTISDLECADAATYYCQHGYYYSSSFTTYNAFGGGTEVVVK
notes: as for B4
B9: 70H1-VH2VL2 (antibody, V domains shown)
VH: QQQLVESGGGVVQPGGSLRLSCAASGFTFSSGYDMCWVRQAPGKGLEWIACIYTRSSGGTYYASWAKGRFTISKDNSKNTLYLQMNSLRAEDTAVYYCAKGRSSYRLNLWGQGTLVTVSS
VL: DIQMTQSPSTLSASVGDRVTIKCQASQSISNELSWYQQKPGKAPKLLIYRASTLESGVSSRFSGSGSGTEFTLTISSLQPDDFATYYCQSTFYGDYGNAFGGGTKVEIK
notes: Humanized 70H1
B10: 70H1-VH1VL1 (antibody, V domains shown)
VH: B9 VH with Q2V, I49V, A50S, K74R
VL: B9 VL with K22T, S59P
notes: Humanized 70H1
B11: 70H1-VH3VL2 (antibody, V domains shown)
VH: B9 VH with T28S, Y97F
VL: B9 VL
notes: Humanized 70H1
B12: 70H1-VH2VL3 (antibody, V domains shown)
VH: B9 VH
VL: B9 VL with A43P
notes: Humanized 70H1
B13: 70H1-VH3VL1 (antibody, V domains shown)
VH: B9 VH with T28S, Y97F
VL: B9 VL with K22T, S59P
notes: Humanized 70H1, the final preferred antibody
B14: 70H1-VH3VL3 (antibody, V domains shown)
VH: B9 VH with T28S, Y97F
VL: B9 VL with A43P
notes: Humanized 70H1
B15: 70H1-VH2VL1 (antibody, V domains shown)
VH: B9 VH
VL: B9 VL with K22T, S59P
notes: Humanized 70H1
B16: 70H1-VH1VL3 (antibody, V domains shown)
VH: B9 VH with Q2V, I49V, A50S, K74R
VL: B9 VL with A43P
notes: Humanized 70H1
B17: 70H1 mutant VH-33 Y to C (antibody, V domains shown)
VH: B1 VH with Y33C, C61Y
VL: B1 VL
B18: 70H1 mutant VL-96 Y to C (antibody, V domains shown)
VH: B1 VH with C61Y
VL: B1 VL with Y96C
B19: 70H1 mutant VL-98 N to C (antibody, V domains shown)
VH: B1 VH with C61Y
VL: B1 VL with N98C
B20: 70H1 mutant VL-27 Q to C (antibody, V domains shown)
VH: B1 VH with C61Y
VL: B1 VL with Q27C
B21: 70H1 mutant VH-55 R to C (antibody, V domains shown)
VH: B1 VH with R55C, C61Y
VL: B1 VL
B22: 70H1 mutant VL-92 F to C (antibody, V domains shown)
VH: B1 VH with C61Y
VL: B1 VL with F92C
B23: 70H1 mutant VL-93 Y to C (antibody, V domains shown)
VH: B1 VH with C61Y
VL: B1 VL with Y93C
B24: 70H1 mutant VH-65 W to C (antibody, V domains shown)
VH: B1 VH with C61Y, W65C
VL: B1 VL
B25: 70H1 mutant VL-49 Y to C (antibody, V domains shown)
VH: B1 VH with C61Y
VL: B1 VL with Y49C
B26: 70H1 mutant VL-53 T to C (antibody, V domains shown)
VH: B1 VH with C61Y
VL: B1 VL with T53C

target: T1, human CD47 antigen (immobilized on CM5 chip, Biacore) (human, UniProt Q08722 19-139, limits assumed); test: SPR (Biacore T200)
T1 sequence (Q08722 19-139 limits assumed): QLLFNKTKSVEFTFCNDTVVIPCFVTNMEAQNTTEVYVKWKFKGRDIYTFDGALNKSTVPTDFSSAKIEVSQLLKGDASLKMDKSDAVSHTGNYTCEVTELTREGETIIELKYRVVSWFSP

Binder | fold decrease of affinity compared to 70H1
B1 | 470 fold

target: T2, CD47 on Raji cells (human, UniProt Q08722 19-323); test: flow cytometry on Raji cells
T2 construct: whole, on cells
T2 sequence (Q08722 19-323): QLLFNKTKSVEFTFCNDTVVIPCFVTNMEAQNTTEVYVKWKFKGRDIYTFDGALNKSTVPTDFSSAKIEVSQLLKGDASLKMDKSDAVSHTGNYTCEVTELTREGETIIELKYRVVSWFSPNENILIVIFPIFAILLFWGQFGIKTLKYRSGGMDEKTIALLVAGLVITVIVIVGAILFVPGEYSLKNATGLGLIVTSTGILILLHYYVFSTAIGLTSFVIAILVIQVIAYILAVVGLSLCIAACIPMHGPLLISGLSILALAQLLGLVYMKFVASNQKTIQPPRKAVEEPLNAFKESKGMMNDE

Binder | fold lower binding compared to 70H1
B1 | ~60 fold

target: T2, CD47 on Raji cells; test: flow cytometry on Raji cells; remark: another data set of the same source

Binder | EC50
B2 | 0.47 nM
B3 | 0.24 nM
B1 | 31.9 nM

target: T3, CD47 on CHOK1-CD47 cells (UniProt Q08722 19-323); test: flow cytometry on CHOK1-CD47 cells
T3 construct: whole, on cells; The rabbits were immunized with human CD47, so human is likely
T3 sequence (Q08722 19-323 limits assumed): as the sequence (Q08722 19-323) above

Binder | EC50 | fold lower binding compared to 70H1
B4 | 0.8 nM | –
B5 | 0.91 nM | –
B6 | 2.82 nM | –
B1 | – | ~20 fold
B7 | 3.8 nM | –
B8 | 2.88 nM | –

target: T4, Recombinant human CD47 protein (DIMA BIOTECH, Cat# PME-100008) (human, UniProt Q08722 19-139, limits assumed); test: ELISA on coated recombinant human CD47
T4 construct: Bought protein, coated on ELISA plates; also called CD47 antigen
T4 sequence (Q08722 19-139 limits assumed): as the sequence (Q08722 19-139 limits assumed) above

Binder | fold weaker binding affinity compared to 70H1
B1 | ~7 fold

target: T3, CD47 on CHOK1-CD47 cells; test: flow cytometry on CHOK1-CD47 cells; remark: another data set of the same source

Binder | EC50
B5 | 0.38 nM
B2 | 0.39 nM
B3 | 0.91 nM
B1 | 7.6 nM

target: T3, CD47 on CHOK1-CD47 cells; test: flow cytometry on CHOK1-CD47 cells; remark: another data set of the same source

Binder | EC50
B9 | 1.17 nM
B10 | 1.04 nM
B11 | 0.64 nM
B12 | 1.05 nM
B13 | 0.23 nM
B14 | 1.01 nM
B15 | 1.09 nM
B16 | 1.76 nM
B5 | 0.35 nM

target: T4, Recombinant human CD47 protein (DIMA …); test: ELISA on coated recombinant human CD47; remark: another data set of the same source

Binder | EC50
B5 | 0.12 nM
B2 | 0.07 nM
B3 | 0.15 nM
B1 | 0.72 nM

target: antibody antigen (CD47) coated in the ELISA of Example 3 (UniProt Q08722); test: ELISA on coated antigen, ratio against wild-type 70H1
Sequence (Q08722 19-139 limits assumed): as above

Binder | Mutant Binding Strength (EC50 post-mutation / EC50 wild-type)
B17 | 1
B18 | 1
B19 | 1
B20 | 1
B21 | 1
B2 | 1
B22 | 1.3
B23 | 1
B24 | 0.8
B25 | 0.9
B26 | 1

target: T1, human CD47 antigen (immobilized on CM5 …); test: SPR (Biacore T200), CD47 antigen on CM5 chip, antibody as analyte, 1:1 model

Binder | Kd | koff | kon
B5 | 0.0308 nM | 0.00014 s⁻¹ | 4.54e+06 M⁻¹ s⁻¹
B1 | 14.1 nM | 0.000343 s⁻¹ | 24400 M⁻¹ s⁻¹

— patent publication EP4793287A1, “TUMOR MICROENVIRONMENT SPECIFICALLY ACTIVATED CD47 ANTIBODY” (Affinity (Shanghai) Biopharmaceutical Co., Ltd., priority 2023, dated 2025)
